In patent US20160185837A1 (Medimmune Limited, priority 2013, published 2016) one finds EC50 data, which are given here for 5 molecules.

Common to all, as to type: cell-based
Test [1] addresses T1, rat GLP-1 receptor (rGLP-1r) (Rattus norvegicus, UniProt P32301).
T1 construct: expressed in transfected cells; host or cells: HEK293s or CHO cells
T1 sequence (P32301 22-463): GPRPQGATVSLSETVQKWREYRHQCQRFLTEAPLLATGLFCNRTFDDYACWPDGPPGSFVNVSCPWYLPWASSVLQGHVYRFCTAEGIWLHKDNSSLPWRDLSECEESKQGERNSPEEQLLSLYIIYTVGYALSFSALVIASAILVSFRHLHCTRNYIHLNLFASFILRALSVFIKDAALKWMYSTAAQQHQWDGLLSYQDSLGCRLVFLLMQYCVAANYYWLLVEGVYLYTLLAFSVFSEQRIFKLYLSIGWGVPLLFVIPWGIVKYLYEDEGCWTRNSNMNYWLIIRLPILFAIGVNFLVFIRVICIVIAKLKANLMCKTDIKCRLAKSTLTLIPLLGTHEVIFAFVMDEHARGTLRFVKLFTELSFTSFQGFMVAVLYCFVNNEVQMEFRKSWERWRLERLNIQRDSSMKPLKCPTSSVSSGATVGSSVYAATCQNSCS
In words: BSA-cAMP assay, cells expressing rat GLP-1 receptor. The settings on record: BSA-cAMP assay. The gist of the method: (§1)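 EC50 is the midpoint of an unconstrained 4-parameter logistic fit to HTRF cAMP data, expressed as percent of maximal native agonist response, from two separate occasions. Rodent (mouse, rat) GLP-1R- or GIPR-expressing cells were incubated with compound 30 min at room temperature in 0.1% BSA medium, in duplicate.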
(Cyclic AMP is a second messenger, typically raised through Gs and lowered through Gi signalling.)

Test [2] concerns the target T2, mouse GLP-1 receptor (mGLP-1r) (Mus musculus, UniProt O35659).
T2 construct: expressed in transfected cells; host or cells: HEK293s or CHO cells
T2 sequence (O35659 22-463): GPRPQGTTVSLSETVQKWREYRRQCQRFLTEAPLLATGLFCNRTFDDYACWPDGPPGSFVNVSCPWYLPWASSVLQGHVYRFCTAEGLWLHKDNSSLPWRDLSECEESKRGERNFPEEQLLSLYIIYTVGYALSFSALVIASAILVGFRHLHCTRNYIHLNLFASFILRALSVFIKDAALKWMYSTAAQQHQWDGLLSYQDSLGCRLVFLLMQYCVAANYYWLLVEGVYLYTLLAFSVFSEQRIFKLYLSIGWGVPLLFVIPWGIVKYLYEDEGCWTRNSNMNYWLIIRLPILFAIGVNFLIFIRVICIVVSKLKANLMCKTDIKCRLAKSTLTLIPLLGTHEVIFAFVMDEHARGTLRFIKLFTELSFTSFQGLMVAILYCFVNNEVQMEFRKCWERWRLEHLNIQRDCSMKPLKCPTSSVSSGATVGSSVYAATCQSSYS
In words: BSA-cAMP assay, cells expressing mouse GLP-1 receptor. The note with it: BSA-cAMP assay. The gist of the method: as §1

The target in a further test is T3, rat GIP receptor (rGIPr) (Rattus norvegicus, UniProt P43219).
T3 construct: expressed in transfected cells; host or cells: HEK293s or CHO cells
T3 sequence (P43219 19-455): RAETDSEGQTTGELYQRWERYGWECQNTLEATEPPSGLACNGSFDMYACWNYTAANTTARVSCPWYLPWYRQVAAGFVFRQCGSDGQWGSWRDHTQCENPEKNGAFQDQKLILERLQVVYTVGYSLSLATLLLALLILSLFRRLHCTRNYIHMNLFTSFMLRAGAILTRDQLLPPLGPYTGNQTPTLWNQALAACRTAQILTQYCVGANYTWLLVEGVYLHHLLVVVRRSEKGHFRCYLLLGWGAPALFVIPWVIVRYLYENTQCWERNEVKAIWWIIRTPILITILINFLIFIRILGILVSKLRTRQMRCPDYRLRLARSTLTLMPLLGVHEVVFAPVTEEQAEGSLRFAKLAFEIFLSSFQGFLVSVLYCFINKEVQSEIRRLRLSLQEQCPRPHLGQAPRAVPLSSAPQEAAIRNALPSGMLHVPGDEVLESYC
Nature of the test: BSA-cAMP assay, cells expressing rat GIP receptor. The settings on record: BSA-cAMP assay. Put shortly:
as §1

The target in test [3] is T4, human GLP-1 receptor (hGLP-1r) (Homo sapiens, UniProt P43220).
T4 construct: expressed in transfected cells
Nature of the test: BSA-cAMP assay, cells expressing human GLP-1 receptor. The settings on record: BSA-cAMP assay. Put shortly:
(§2)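 EC50 came from an unconstrained 4-parameter logistic fit of HTRF cAMP data expressed as percent of maximal native agonist activation, tested on two occasions. Thawed receptor-expressing cells (hGLP-1r, hGIPr at 0.5×10^5 cells/ml) treated 30 min at room temperature in 0.1% BSA-containing medium; two distinct hGIPr lines.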

Test [4] addresses T5, mouse GIP receptor (mGIPr) (Mus musculus, UniProt Q0P543).
T5 construct: expressed in transfected cells; host or cells: HEK293s or CHO cells
T5 sequence (Q0P543 19-460): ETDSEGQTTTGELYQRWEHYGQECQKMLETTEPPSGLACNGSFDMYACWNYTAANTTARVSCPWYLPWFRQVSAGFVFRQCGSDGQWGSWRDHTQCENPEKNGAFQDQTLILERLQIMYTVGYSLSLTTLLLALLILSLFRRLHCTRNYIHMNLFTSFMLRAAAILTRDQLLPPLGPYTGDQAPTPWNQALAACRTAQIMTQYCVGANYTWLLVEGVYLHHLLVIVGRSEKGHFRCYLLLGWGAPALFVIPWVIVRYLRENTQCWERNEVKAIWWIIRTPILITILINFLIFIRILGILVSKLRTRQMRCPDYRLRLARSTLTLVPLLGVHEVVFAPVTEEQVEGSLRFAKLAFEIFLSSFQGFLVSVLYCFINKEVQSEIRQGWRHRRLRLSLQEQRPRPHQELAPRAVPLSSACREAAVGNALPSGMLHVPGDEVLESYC
Nature of the test: BSA-cAMP assay, cells expressing mouse GIP receptor. The settings on record: BSA-cAMP assay. The gist of the method: as §1

Test [5] has as its target T6, human GIP receptor (hGIPr) (Homo sapiens, UniProt P48546).
T6 construct: expressed in transfected cells
T6 sequence (P48546 22-466): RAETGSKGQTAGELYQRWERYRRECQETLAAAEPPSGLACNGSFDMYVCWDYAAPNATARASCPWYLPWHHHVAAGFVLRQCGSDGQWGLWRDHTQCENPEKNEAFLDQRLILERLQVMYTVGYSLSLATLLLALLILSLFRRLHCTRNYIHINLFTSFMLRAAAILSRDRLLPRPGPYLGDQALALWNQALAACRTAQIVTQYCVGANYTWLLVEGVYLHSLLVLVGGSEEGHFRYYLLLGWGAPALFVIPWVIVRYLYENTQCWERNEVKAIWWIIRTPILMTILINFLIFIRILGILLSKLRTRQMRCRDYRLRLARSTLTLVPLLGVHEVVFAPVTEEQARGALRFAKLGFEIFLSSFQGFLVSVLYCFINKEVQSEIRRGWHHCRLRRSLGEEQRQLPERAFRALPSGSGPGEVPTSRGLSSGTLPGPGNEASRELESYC
Nature of the test: BSA-cAMP assay, cells expressing human GIP receptor. The note with it: BSA-cAMP assay. Put shortly: as §2

Test [6] deals with T7, human glucagon receptor (GCGr) (Homo sapiens, UniProt P47871).
T7 construct: expressed in transfected cells; host or cells: HEK293s or CHO cells
Nature of the test: BSA-cAMP assay, cells expressing human glucagon receptor.

The next test has as its target T8, hGIPr (C3) (Homo sapiens, UniProt P48546).
T8 construct: expressed in transfected cells
T8 sequence (P48546 22-466): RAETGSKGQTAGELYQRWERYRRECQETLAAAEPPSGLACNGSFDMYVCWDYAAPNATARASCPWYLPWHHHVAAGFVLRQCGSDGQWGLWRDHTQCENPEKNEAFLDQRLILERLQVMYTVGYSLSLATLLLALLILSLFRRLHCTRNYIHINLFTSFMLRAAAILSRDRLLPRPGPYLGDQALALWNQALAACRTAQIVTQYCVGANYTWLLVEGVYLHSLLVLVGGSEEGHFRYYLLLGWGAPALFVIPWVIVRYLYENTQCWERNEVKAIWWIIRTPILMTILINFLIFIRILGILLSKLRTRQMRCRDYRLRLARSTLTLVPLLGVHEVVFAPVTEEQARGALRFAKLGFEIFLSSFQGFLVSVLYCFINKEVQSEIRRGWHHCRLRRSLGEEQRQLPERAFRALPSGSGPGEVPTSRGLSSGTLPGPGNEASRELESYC
In words: BSA-cAMP assay, second human GIPr cell line hGIPr (C3). The note with it: second human GIPr cell line, STDEV or N in the line below, read-out: cAMP activity hGIPr (C3) (EC50). Here is the method: For human GIPr, two different lines were used, shown as “hGIPr” and “hGIPr (C3)” in Table 11. Peptide activation of these various receptors results in downstream production of cAMP second messenger that can be measured in a functional activity assay.
One basic cAMP assays was performed, differing in the medium used for the assay, the “BSA-cAMP assay”:
BSA-based assay medium: 0.1% bovine serum albumin (BSA) in
Hanks Balanced Salt Solution (GIBCO or Sigma), containing 0.5 mM IBMX (Sigma #17018);
In certain aspects, the assay can also be carried out in medium supplemented with serum albumin that corresponds to the receptor being tested, e.g., human serum albumin for testing cAMP activity at hGIPr or hGLP-1r, rat serum albumin for testing cAMP activity at rGIPr or rGLP-1r, and so on. […]
cAMP levels were measured using a commercially available cAMP dynamic 2 HTRF kit (Cisbio, Cat #62AM4PEJ), following the two step protocol as per manufacturer's recommendations. […] Plates were incubated at room temperature for one hour and then read on an Envision (Perkin Elmer) using excitation wavelength of 320 nm and emission wavelengths of 620 nm & 665 nm. Data was transformed to % Delta F as described in manufacturer's guidelines and then transformed to percent activation of maximal native agonist response and analysed by 4-parameter logistic fit to determine EC50 values. […]

Where [7] appears, read: read-out: cAMP activity rGLP1r (EC50).
Setting [8] is: read-out: cAMP activity mGLP1r (EC50).
Setting [9] is: read-out: cAMP activity rGIPr (EC50).
Setting [10] is: batch 1 unless a batch is given, read-out: cAMP activity hGLP1r (EC50).
Setting [11] is: read-out: cAMP activity mGIPr (EC50).
The mark [12] stands for this setting: batch 1 unless a batch is given, read-out: cAMP activity hGIPr (EC50).
Where [13] appears, read: batch 1 unless a batch is given, read-out: cAMP activity hGCGr (EC50).
[14] abbreviates: Batch 1, read-out: rGLP1r cAMP activity EC50.
The mark [15] stands for this setting: Batch 1, read-out: mGLP1r cAMP activity EC50.
Setting [16] is: Batch 1, read-out: rGIPr cAMP activity EC50.
[17] abbreviates: Batch 1, read-out: hGLP1r cAMP activity EC50.
The mark [18] stands for this setting: Batch 1, read-out: mGIPr cAMP activity EC50.
[19] abbreviates: Batch 1, read-out: hGIPr cAMP activity EC50.
The mark [20] stands for this setting: Batch 1, read-out: hGCGr cAMP activity EC50.

Where two headings read alike, the source gives them in different places.

T4 sequence (P43220 24-463): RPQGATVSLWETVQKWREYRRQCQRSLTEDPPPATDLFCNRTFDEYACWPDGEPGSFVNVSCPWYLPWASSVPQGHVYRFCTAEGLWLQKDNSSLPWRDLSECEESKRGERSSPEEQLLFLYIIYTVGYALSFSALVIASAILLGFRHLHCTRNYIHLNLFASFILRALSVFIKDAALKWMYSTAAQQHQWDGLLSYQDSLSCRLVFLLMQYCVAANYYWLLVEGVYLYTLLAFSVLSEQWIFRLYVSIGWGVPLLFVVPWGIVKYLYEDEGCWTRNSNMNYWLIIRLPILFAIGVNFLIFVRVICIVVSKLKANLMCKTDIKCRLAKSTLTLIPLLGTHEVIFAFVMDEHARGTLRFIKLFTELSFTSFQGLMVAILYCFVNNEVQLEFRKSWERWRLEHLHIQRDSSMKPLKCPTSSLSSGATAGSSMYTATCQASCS
T7 sequence (P47871 26-477): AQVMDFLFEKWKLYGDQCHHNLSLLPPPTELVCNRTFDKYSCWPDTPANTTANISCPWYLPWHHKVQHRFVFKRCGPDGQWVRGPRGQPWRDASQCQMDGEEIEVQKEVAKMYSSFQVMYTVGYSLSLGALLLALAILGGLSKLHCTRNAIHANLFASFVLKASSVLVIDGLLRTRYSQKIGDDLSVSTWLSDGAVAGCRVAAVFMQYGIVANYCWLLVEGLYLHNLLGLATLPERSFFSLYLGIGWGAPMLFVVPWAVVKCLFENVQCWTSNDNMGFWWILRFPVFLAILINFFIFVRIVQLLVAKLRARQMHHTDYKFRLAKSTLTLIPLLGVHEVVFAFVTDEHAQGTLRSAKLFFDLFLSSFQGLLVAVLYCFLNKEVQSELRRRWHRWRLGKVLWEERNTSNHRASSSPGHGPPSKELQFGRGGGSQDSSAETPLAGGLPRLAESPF

B1: IP246: Fc fusion, IgG1-TM, SEQ ID NO:116; agonist peptide YSEGTFTSDYSKLLEGQAAKLFIEWLVKGP (protein)
chain: YSEGTFTSDYSKLLEGQAAKLFIEWLVKGPAAAGGSGSTASSGSGSATGGGGAATHTCPPCPAPEF
modifications: also: Fc fusion, IgG1-TM
notes: agonist peptide YSEGTFTSDYSKLLEGQAAKLFIEWLVKGP
What is called EC50 is the concentration at which the effect is half-maximal. As for B1, the EC50 amounted to 0.072 nM in test [1] (setting [7]); 3.2 nM in test [2] (setting [8]); 10 nM with rat GIP receptor (rGIPr) (setting [9]); 0.65 nM in test [3] (setting [10]); 260 nM in test [4] (setting [11]); 2.2 nM in test [5] (setting [12]). Besides, the EC50 in test [6] (setting [13]) was more than 1400 nM.

B2: IP247: Fc fusion, IgG1-TM, SEQ ID NO:117; agonist peptide YSEGTFTSDYSKLLEKIHQQLFIEWLVKGP (protein)
chain: YSEGTFTSDYSKLLEKIHQQLFIEWLVKGPAAAGGSGSTASSGSGSATGGGGAATHTCPPCPAPEF
modifications: also: Fc fusion, IgG1-TM
notes: agonist peptide YSEGTFTSDYSKLLEKIHQQLFIEWLVKGP
B2: the EC50 in test [1] (setting [7]) worked out at 11 nM; in test [2] (setting [8]), 280 nM; in the test with rat GIP receptor (rGIPr) (setting [9]), 0.03 nM; in test [3] (setting [10]) it was 63 nM; in test [4] (setting [11]), 2.3 nM; in test [5] (setting [12]) it was 0.019 nM. Moreover, the EC50 in test [6] (setting [13]) was more than 420 nM.

B3: IP351 (protein)
chain: YSEGTFISDYSIAMDKIHQQDFVNWLLAQKPSSGAPPPSGGGGSGGGGSGGGGSGGGGSACPPC
For B3, the EC50 stood at 210 nM in test [1] (setting [14]); 820 nM in test [2] (setting [15]); 0.0063 nM with rat GIP receptor (rGIPr) (setting [16]); 110 nM in test [3] (setting [17]); 0.0098 nM in test [4] (setting [18]); 0.0036 nM in test [5] (setting [19]). In addition, the EC50 in test [6] (setting [20]) worked out at 130 nM.

B4: IP018 (protein)
chain: YSEGTFISDYSIAMDKIHQQDFVNWLLAQKAAAGGSGSTASSGSGSATGGGGAATHTCPPCPAPEF
modifications: /note=“Description of Artificial Sequence Synthetic Peptide-linker-hinge polypeptide”
As to B4, the results for the half-maximal effective concentration (EC50) in the test with hGIPr (C3) and in the test with rat GIP receptor (rGIPr) (setting [9]) were 0.8 nM and 0.0076 nM, respectively.

B5: IP321 (protein)
chain: YSEGTFISDYSIAMDKIHQQDFVNWLLAGGAAAGGSGSTASSGSGSATGGGGAATHTCPPC
For B5, the EC50 in test [1] (setting [14]) is 22 nM; in test [2] (setting [15]) it was 330 nM; with rat GIP receptor (rGIPr) (setting [16]), 0.0079 nM; in test [3] (setting [17]) it was 72 nM; in test [4] (setting [18]) it was 0.017 nM; in test [5] (setting [19]) it was 0.0096 nM. Further, the EC50 in test [6] (setting [20]) stood at 24 nM.
